Article PMC3307134
Where two headings read alike, the source gives them in different places. Blank lines part the entries; values can stand above or below the substance they belong to.

Legend:
[1] = molecular target: VE-cad(3)His fragment (human); assay: SPR
[2] = molecular target: VE-cad(1-5) fragment (human); assay: SPR
[3] = molecular target: VE-cad(3)His fragment (human); assay: SPR; remark: listed apart in the source
[4] = molecular target: VE-cad(1-5) fragment (human); assay: SPR; remark: listed apart in the source
[5] = molecular target: VE-cad(3)His fragment (human); assay: SPR; remark: listed apart in the source
[6] = molecular target: recombinant dimeric (β15-66)2 fragment; assay: ELISA
[7] = molecular target: fibrin (β15-66)2 15-66 (Homo sapiens) (UniProt P02675); assay: SPR; conditions: cited from earlier work
fibrin (β15-66)2 15-66 (Homo sapiens), sequence (P02675 15-66): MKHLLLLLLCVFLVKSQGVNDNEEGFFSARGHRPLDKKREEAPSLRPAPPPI

VE-cadherin VE-cad(1-4)His EC1-4, sequence (P33151 48-477): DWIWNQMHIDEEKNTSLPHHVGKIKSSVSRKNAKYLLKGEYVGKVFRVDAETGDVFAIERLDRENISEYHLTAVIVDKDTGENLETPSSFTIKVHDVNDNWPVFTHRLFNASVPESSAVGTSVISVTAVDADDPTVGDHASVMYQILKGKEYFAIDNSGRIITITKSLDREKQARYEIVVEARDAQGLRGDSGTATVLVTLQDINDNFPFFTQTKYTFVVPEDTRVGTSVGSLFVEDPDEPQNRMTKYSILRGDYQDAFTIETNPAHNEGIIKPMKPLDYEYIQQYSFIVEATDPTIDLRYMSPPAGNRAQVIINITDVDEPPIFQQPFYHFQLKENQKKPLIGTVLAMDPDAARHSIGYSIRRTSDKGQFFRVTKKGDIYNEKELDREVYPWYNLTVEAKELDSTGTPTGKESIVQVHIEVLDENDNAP

Kd [1]: 90 nM
Kd [2]: 82 nM
Kd [3]: 91 nM
koff [3]: 0.0172 s⁻¹
kon [3]: 189000 M⁻¹ s⁻¹
Kd [4]: 76.7 nM
kon [4]: 678000 M⁻¹ s⁻¹
Kd [5]: 89 nM
Substance: recombinant dimeric (β15-66)2 fragment (domain or fragment)

Kd [6]: 32 nM
Substance: VE-cad(2-4) fragment (domain or fragment)

Substance: VE-cadherin VE-cad(1-4)His EC1-4 (from UniProt P33151)
Kd [7]: 80 nM

Kd [6]: 27 nM
Substance: VE-cad(2-3) fragment (domain or fragment)
